The record followed here is publication PMC7588454, “Osteopontin binds ICOSL promoting tumor metastasis” (Communications Biology, 2020).

The chains are these.
B3: soluble recombinant ICOSL-Fc (Fc fusion, UniProt O75144 19-256, looked up)
chain: DTQEKEVRAMVGSDVELSCACPEGSRFDLNDVYVYWQTSESKTVVTYHIPQNSSLENVDSRYRNRALMSPAGMLRGDFSLRLFNVTPQDEQKFHCLVLSQSLGFQEVLSVEVTLHVAANFSVPVVSAPHSPSQDELTFTCTSINGYPRPNVYWINKTDNSLLDQALQNDTVFLNMRGLYDVVSVLRIARTPSVNIGCCIENVLLQQNLTVGSQTGNDIGERDKITENPVSTGEKNAAT
notes: also called B7-H2; CD275; source: bought: Bio-Techne / R&D

Holding throughout (assay): ELISA; OPN preparation (60 nM in PBS) coated on MaxiSorp plates; ICOSL-Fc titrated from 60 nM to 1.8 nM in PBS + 0.05% Tween-20, 1 h at 25 C, with or without 60 nM ICOS-Fc, or ICOS-Fc alone; detected with HRP anti-human-IgG1
Settings in all cases: both partners purified

The target of test [1] is B3.
Test [2] has as its target T1, GST-OPN fusion protein (human OPNa) produced in E. coli (human, UniProt P10451-1 17-314).
T1 construct: human Osteopontin OPNa; also called OPN-GST; huGST-OPN; source: E. coli BL21 (DE3), purified (Glutathione Sepharose)

Test [3] concerns the target T2, full-length OPN (OPN-a) produced in an eukaryotic system ( (human or mouse cDNA cloned), UniProt P10451-1 17-314).
T2 construct: Osteopontin, full-length form OPN-a; Secreted into the supernatant, so the signal peptide is probably absent (surmise); also called OPN-FL; home-made OPN-FL; source: CHO cells, stably transfected (pUCOE vector), purified from supernatant on nickel-nitrilotriacetic agarose

T1 sequence (P10451 17-314): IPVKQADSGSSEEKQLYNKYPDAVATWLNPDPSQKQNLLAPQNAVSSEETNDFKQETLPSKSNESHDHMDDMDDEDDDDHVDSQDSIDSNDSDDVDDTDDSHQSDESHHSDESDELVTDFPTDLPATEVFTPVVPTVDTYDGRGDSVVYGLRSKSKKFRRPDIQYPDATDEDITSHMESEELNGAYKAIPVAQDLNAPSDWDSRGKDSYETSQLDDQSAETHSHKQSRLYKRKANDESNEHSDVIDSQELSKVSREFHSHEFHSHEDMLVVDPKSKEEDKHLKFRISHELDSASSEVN
T2 sequence (P10451 17-314): as above

B1: recombinant N-term portion of OPN (aa 17-167) (domain or fragment)
chain: not shown
notes: Osteopontin, N-terminal thrombin-generated fragment, aa 17-167; also called OPN-N; OPN-N terminal; source: recombinant
On to B1, for which the binding result in test [1] is listed as “binds”.

B2: recombinant C-term portion of OPN (aa 168-314) (domain or fragment)
chain: not shown
notes: Osteopontin, C-terminal thrombin-generated fragment, aa 168-314; also called OPN-C; OPN-C terminal; source: recombinant
B2: the binding result in test [1] is given as “binds”.
On to B3, for which the binding result in test [2] and in test [3] was “binds” throughout.
